Molecular target: the molecule itself
Experiment: enzyme activity versus enzyme concentration

B1: SARS main protease (enzyme)
chain: SGFRKMAFPSGKVEGCMVQVTCGTTTLNGLWLDDTVYCPRHVICTAEDMLNPNYEDLLIRKSNHSFLVQAGNVQLRVIGHSMQNCLLRLKVDTSNPKTPKYKFVRIQPGQTFSVLACYNGSPSGVYQCAMRPNHTIKGSFLNGSCGSVGFNIDYDCVSFCYMHHMELPTGVHAGTDLEGKFYGPFVDRQTAQAAGTDTTITLNVLAWLYAAVINGDRWFLNRFTTTLNDFNLVAMKYNYEPLTQDHVDILGPLSAQTGIAVLDMCAALKELLQNGMNGRTILGSTILEDEFTPFDVVRQCSGVTFQ
  Kd: 15 ± 4 nM
